# Positions count from the first letter of the chain named.
# B1: Cv2.3194 (recombinant human IgG1) (antibody)
# heavy: EVQLVESGGGLIQPGGSLRLSCAASGITVTSNYMSWVRQAPGKGLEWVSVIYPGGSTFYADSVKGRFTISRDNSKNTLYLQMNSLRAEDTAVYYCARDLVVYGMDVWGQGTTVTVSSASTKGPSVFPLAPSSKSTSGGTAALGCLVKDYFPEPVTVSWNSGALTSGVHTFPAVLQSSGLYSLSSVVTVPSSSLGTQTYICNVNHKPSNTKVDKKVEPKSCDKTHTCPPCPAPELLGGPSVFLFPPKPKDTLMISRTPEVTCVVVDVSHEDPEVKFNWYVDGVEVHNAKTKPREEQYNSTYRVVSVLTVLHQDWLNGKEYKCKVSNKALPAPIEKTISKAKQPREPQVYTLPPSRDELTKNQVSLTCLVKGFYPSDIAVEWESNGQPENNYKTTPPVLDSDGSFFLYSKLTVDKSRWQQGNVFSCSVMHEALHNHYTQKSLSLSPGK
# light: EIVLTQSPGTLSLSPGERATLSCRASQSVSSSYLAWYQQKPGQAPRLLIYGASSRATGIPGRFSGSGSGTDFTLTISRLEPEDFAIYYCQQGVTFGGGTKVEIKRTVAAPSVFIFPPSDEQLKSGTASVVCLLNNFYPREAKVQWKVDNALQSGNSQESVTEQDSKDSTYSLSSTLTLSKADYEKHKVYACEVTHQGLSSPVTKSFNRGEC
# B2: Cv2.5213 (recombinant human IgG1) (antibody)
# heavy: B1 heavy with I27F, T30S, V50L, P53S, F58Y, V100N, V101Y, T111A
# light: not shown
# B3: Cv2.3235 (recombinant human IgG1) (antibody)
# heavy: B1 heavy with I27F, T30S, S31R, P53S, L99G, V100D, V101Y
# light: DIQMTQSPSFLSASVGDRVTITCRASQGISSFLAWYQQKPGKAPKLLIYGASTLQSGVTSRFSGSGSGTEFTLTISSLQPEDFATYYCQRLDSYPPITFGQGTRLEIKRTVAAPSVFIFPPSDEQLKSGTASVVCLLNNFYPREAKVQWKVDNALQSGNSQESVTEQDSKDSTYSLSSTLTLSKADYEKHKVYACEVTHQGLSSPVTKSFNRGEC
# B4: Cv2.1353 (recombinant human IgG1) (antibody)
# heavy: EVQLVESGGGLVQPGGSLRLSCAASGVTVSSNYMNWVRQAPGKGLEWVSVIYSGGSTFYADSVKGRFIISRDNSKNTLYLQMNSLKTEDTAVYYCARDLGPMGFDIWGQGTMVTVSSASTKGPSVFPLAPSSKSTSGGTAALGCLVKDYFPEPVTVSWNSGALTSGVHTFPAVLQSSGLYSLSSVVTVPSSSLGTQTYICNVNHKPSNTKVDKKVEPKSCDKTHTCPPCPAPELLGGPSVFLFPPKPKDTLMISRTPEVTCVVVDVSHEDPEVKFNWYVDGVEVHNAKTKPREEQYNSTYRVVSVLTVLHQDWLNGKEYKCKVSNKALPAPIEKTISKAKQPREPQVYTLPPSRDELTKNQVSLTCLVKGFYPSDIAVEWESNGQPENNYKTTPPVLDSDGSFFLYSKLTVDKSRWQQGNVFSCSVMHEALHNHYTQKSLSLSPGK
# light: DIQMTQSPSFLSASVGDRVTITCRASQGISSYLAWYQQKPGKAPKLLIYAASTLQSGVPSRFSGSGSGTEFTLTISSLQPEDFATYYCQQLNSDPPVTFGPGTKVDIKRTVAAPSVFIFPPSDEQLKSGTASVVCLLNNFYPREAKVQWKVDNALQSGNSQESVTEQDSKDSTYSLSSTLTLSKADYEKHKVYACEVTHQGLSSPVTKSFNRGEC
# B5: COV2-2130 (antibody, V domains shown)
# VH: EVQLVESGGGLVKPGGSLRLSCAASGFTFRDVWMSWVRQAPGKGLEWVGRIKSKIDGGTTDYAAPVKGRFTISRDDSKNTLYLQMNSLKTEDTAVYYCTTAGSYYYDTVGPGLPEGKFDYWGQGTLVTVSS
# VL: not shown
# B6: ADG-2 (antibody, V domains shown)
# VH: EVQLVESGGGLVKPGGSLRLSCAASGFTFSSYYMNWVRQAPGKGLEWVSSISEDGYSTYYPDSLKGRFTISRDSAKNSLYLQMNSLRADDTAVYYCARDFSGHTAWAGTGFEYWGQGTLVTVSS
# VL: QSVLTQPPSVSGAPGQRITISCTGSSSNIGAGYDVHWYQQLPGTAPKLLIYGSSSRNSGVPDRFSGSKSGTSASLAITGLQAEDEADYYCQSYDSSLSVLYTFGTGTKVTVL
# B7: Cilgavimab (antibody, V domains shown)
# VH: B5 VH
# VL: not shown
# B8: Adintrevimab (antibody, V domains shown)
# VH: B6 VH
# VL: B6 VL
# Target: SARS-CoV-2 RBD domain, Wuhan (SARS-CoV-2)
# Assay: competition ELISA vs bio-Cv2.1353
# Conditions: remark: other sources report otherwise
row,Binder,% inhibition (competition)
1,B1,65
2,B2,67
3,B3,37
4,B4,74

# Target: SARS-CoV-2 RBD domain, Wuhan (SARS-CoV-2)
# Assay: ELISA
# Set-up: unit not given beside the values
# Conditions: remark: other sources report otherwise
row,Binder,AUC
1,B5,3
2,B1,3
3,B6,3

# Target: SARS-CoV-2 RBD domain, Wuhan (SARS-CoV-2)
# Assay: SPR (Biacore), antibody coupled to CM5 chip, viral protein as analyte
# Conditions: remark: other sources report otherwise
row,Binder,Kd
1,B1,< 0.001 nM
2,B4,< 0.001 nM

# Target: SARS-CoV-2 RBD domain, Wuhan (SARS-CoV-2)
# Assay: competition ELISA vs bio-Cv2.3194
# Conditions: remark: other sources report otherwise
row,Binder,% inhibition (competition)
1,B1,72
2,B2,61
3,B3,37
4,B4,74

# Target: SARS-CoV-2 RBD domain, Wuhan (SARS-CoV-2)
# Assay: SPR (Biacore), IgG immobilized, viral protein as analyte
# Conditions: remark: other sources report otherwise
Binder,Kd,koff,kon
B1,0.00627 nM,3.06e-06 s⁻¹,487000 M⁻¹ s⁻¹

# Target: CoV-MERS Spike ectodomain (MERS-CoV), K9N5Q8
# Assay: ELISA, coated antigen
# Conditions: remark: other sources report otherwise
row,Binder,ELISA OD
1,B1,0.1 OD
2,B2,0.1 OD
3,B3,0.2 OD
4,B4,0.1 OD

# Target: SARS-CoV-1 Spike ectodomain (SARS-CoV-1), P59594
# Assay: ELISA, coated antigen
# Conditions: remark: other sources report otherwise
row,Binder,ELISA OD
1,B1,0.1 OD
2,B2,0.1 OD
3,B3,0.2 OD
4,B4,0.1 OD

# Target: SARS-CoV-2 RBD domain, Wuhan (SARS-CoV-2)
# Assay: ELISA, coated antigen
# Conditions: remark: other sources report otherwise
row,Binder,ELISA OD
1,B1,3.6 OD
2,B2,3.5 OD
3,B3,3.9 OD
4,B4,3.5 OD

# Target: SARS-CoV-2 RBD domain, Wuhan (SARS-CoV-2)
# Assay: SPR (Biacore), antibody immobilised
# Conditions: remark: other sources report otherwise
row,Binder,Kd
1,B1,< 0.1 nM
2,B2,162 nM
3,B3,280 nM
4,B4,2.24 nM

# Target: SARS-CoV-2 RBD domain, Wuhan (SARS-CoV-2)
# Assay: RBD/ACE2 blocking ELISA
# Conditions: remark: other sources report otherwise
row,Binder,% binding inhibition
1,B5,96%
2,B1,96%
3,B6,94%

# Target: SARS-CoV-2 RBD domain, Wuhan (SARS-CoV-2)
# Assay: competition ELISA, biotinylated RBD to immobilized ACE2 ectodomain
# Conditions: remark: other sources report otherwise
Binder,IC50,IC90
B1,0.099 mg/L,0.185 mg/L

# Target: T1, SARS-CoV-2 Spike (S) protein on cells (S-Flow assay) (SARS-CoV-2), P0DTC2
# Assay: flow cytometry, transfected cells
# Conditions: remark: other sources report otherwise
row,Binder,log10 ΔgMFI
1,B1,4
2,B2,4
3,B3,4
4,B4,4

# Target: T1, SARS-CoV-2 Spike (S) protein on cells …
# Assay: S-Flow flow cytometry, spike-expressing cells
# Conditions: remark: other sources report otherwise
Binder,S-Flow (%),S-Flow (MFI)
B1,94%,260000 MFI
B2,95%,270000 MFI
B3,97%,170000 MFI
B4,95%,270000 MFI

# Target: SARS-CoV-2 RBD domain, Wuhan (SARS-CoV-2)
# Assay: ELISA
# Conditions: remark: other sources report otherwise
# Remark: another data set of the same source
row,Binder,OD405nm
1,B7,3.2
2,B1,3.4
3,B8,3.3

# Target: SARS-CoV-2 RBD domain, Wuhan (SARS-CoV-2)
# Assay: competition ELISA vs bio-Cv2.5213
# Conditions: remark: other sources report otherwise
row,Binder,% inhibition (competition)
1,B1,70
2,B2,77
3,B3,47
4,B4,78

# Target: SARS-CoV-2 RBD domain, Wuhan (SARS-CoV-2)
# Assay: ELISA
# Set-up: unit not given beside the values
# Conditions: remark: other sources report otherwise
# Remark: another data set of the same source
row,Binder,AUC (RBD bind.)
1,B1,12
2,B2,13
3,B3,13
4,B4,12

# Target: SARS-CoV-2 RBD domain, Wuhan (SARS-CoV-2)
# Assay: competition ELISA vs bio-Cv2.3235
# Conditions: remark: other sources report otherwise
row,Binder,% inhibition (competition)
1,B1,74
2,B2,80
3,B3,65
4,B4,80

# Target: SARS-CoV-2 RBD domain, Wuhan (SARS-CoV-2)
# Assay: ELISA
# Set-up: unit not given beside the values
# Conditions: remark: other sources report otherwise
# Remark: another data set of the same source
row,Binder,AUC (RBD bind.)
1,B1,13
2,B4,13

# Target: T1, SARS-CoV-2 Spike (S) protein on cells …
# Assay: flow cytometry (Mock 2.5)
# Conditions: remark: other sources report otherwise
row,Binder,log10 ΔgMFI
1,B1,4.4
2,B8,4.4

# Target: SARS-CoV-2 RBD domain, Wuhan (SARS-CoV-2)
# Assay: RBD-ACE2 competition ELISA
# Set-up: unit not given beside the values
# Conditions: remark: other sources report otherwise
row,Binder,AUC (RBD block.)
1,B1,183
2,B2,141
3,B3,114
4,B4,158

# Target: SARS-CoV-2 RBD domain, Wuhan (SARS-CoV-2)
# Assay: RBD-ACE2 competition ELISA
# Set-up: unit not given beside the values
# Conditions: remark: other sources report otherwise
# Remark: another data set of the same source
row,Binder,AUC (RBD block.)
1,B1,365
2,B2,283
3,B3,229
4,B4,315

# Target: SARS-CoV-2 RBD domain, Wuhan (SARS-CoV-2)
# Assay: competition ELISA vs bio-Cv2.1169
# Conditions: remark: other sources report otherwise
row,Binder,% inhibition (competition)
1,B1,56
2,B2,43
3,B3,14
4,B4,62

# Source: US20240336672A1
